Two substances from IntAct's records for PubMed 16499958 can be followed below.

Assay [1] concerns the target rabx5_human RABGEF1 (UniProt Q9UJ41).
Assay [2] has the same target. This is another data set of the same source.

Take “Polyubiquitin-B (Homo sapiens) (from UniProt P0CG47) I44A”: the “effect of a mutation on the interaction” value with rabx5_human RABGEF1 [1] is recorded as “decreasing interaction”.
Regarding “Polyubiquitin-B (Homo sapiens) (from UniProt P0CG47) D58A”, the “effect of a mutation on the interaction” value with rabx5_human RABGEF1 [2] is given as “decreasing interaction”.
